The target of one assay is HLA-C*12:03. The assay can be described thus: IEDB peptide-MHC binding, purified MHC/direct/fluorescence; filed as Kd, often an IC50 or EC50 that approximates it; ≥ and ≤ were set here for values at or beyond the usual limits of such assays.
The target in a further assay is HLA-C*03:03. The assay is described as above.
The target in another assay is HLA-A*69:01. Nature of the assay: IEDB peptide-MHC binding, purified MHC/competitive/fluorescence; filed as Kd, often an IC50 or EC50 that approximates it; ≥ and ≤ were set here for values at or beyond the usual limits of such assays.
For another assay, the target named is HLA-B*46:01. The description is as above.
For a further assay, the target named is HLA-B*51:01. The description is as above.
In another assay the target is HLA-B*39:01. Described as above.
Assay [1] concerns the target HLA-A*26:01. Described as above.
For assay [2], the target named is HLA-A*02:01. Described as above.
In another assay the target is HLA-B*15:17. Described as above.
In a further assay the target is HLA-B*57:01. The description is as above.
Assay [3] concerns the target HLA-B*15:01. Described as above.
The target in another assay is HLA-B*18:01. Described as above.
The next assay concerns the target HLA-B*27:03. The description is as above. As to conditions: source organism: Zaire ebolavirus.
Assay [4] addresses HLA-A*11:01. The assay can be described thus: IEDB peptide-MHC binding, purified MHC/competitive/fluorescence; ≥ and ≤ were set here for values at or beyond the usual limits of such assays. The conditions noted are these: source organism: Zaire ebolavirus.
Assay [5] has as its target HLA-A*03:01. The description is as above. As to conditions: source organism: Zaire ebolavirus.
The target of assay [6] is HLA-A*02:01. The assay is described as above. The conditions noted are these: source organism: Zaire ebolavirus.
In assay [7] the target is HLA-A*03:01. Nature of the assay: IEDB peptide-MHC binding, purified MHC/direct/fluorescence; filed as Kd, often an IC50 or EC50 that approximates it; ≥ and ≤ were set here for values at or beyond the usual limits of such assays.
The target of another assay is HLA-A*24:03. The assay is described as above.
A further assay deals with HLA-A*02:19. Described as above.
The target of a further assay is HLA-A*02:03. The assay is described as above.
In a further assay the target is HLA-A*02:12. The description is as above.
Another assay has as its target HLA-A*02:16. The description is as above.
Another assay concerns the target HLA-A*23:01. The description is as above.
Assay [8] concerns the target HLA-A*68:02. The assay is described as above.
Another assay concerns the target HLA-A*29:02. The assay is described as above.
Another assay has as its target HLA-A*02:11. Described as above.
Assay [9] has as its target HLA-B*35:01. Nature of the assay: IEDB peptide-MHC binding, purified MHC/competitive/fluorescence; filed as Kd, often an IC50 or EC50 that approximates it; ≥ and ≤ were set here for values at or beyond the usual limits of such assays. The conditions noted are these: source organism: Influenza A virus (A/duck/Hong Kong/3096/99(H6N2)).
The target in another assay is HLA-B*08:01. The description is as above. The conditions noted are these: source organism: Influenza A virus (A/duck/Hong Kong/3096/99(H6N2)).
Another assay addresses HLA-A*02:06. Described as above. As to conditions: source organism: Influenza A virus (A/duck/Hong Kong/3096/99(H6N2)).
Assay [10] deals with HLA-A*68:02. The description is as above. The conditions noted are these: source organism: Influenza A virus (A/duck/Hong Kong/3096/99(H6N2)).
The next assay deals with HLA-A*26:02. The description is as above. The conditions noted are these: source organism: Influenza A virus (A/duck/Hong Kong/3096/99(H6N2)).
Assay [11] addresses HLA-A*11:01. Nature of the assay: IEDB peptide-MHC binding, purified MHC/direct/fluorescence; filed as Kd, often an IC50 or EC50 that approximates it; ≥ and ≤ were set here for values at or beyond the usual limits of such assays. As to conditions: source organism: Influenza A virus (A/tiger/Thailand/CU-T4/04(H5N1)).
The target of assay [12] is HLA-A*26:01. Described as above. The conditions noted are these: source organism: Influenza A virus(A/swine/Shandong/fZC/2003(H9N2)).
In another assay the target is HLA-A*31:01. The description is as above. The conditions noted are these: source organism: Influenza A virus (A/tiger/Thailand/CU-T4/04(H5N1)).
In assay [13] the target is HLA-A*02:01. The assay is described as above. The conditions noted are these: source organism: Influenza A virus (A/tiger/Thailand/CU-T4/04(H5N1)).
For the next assay, the target named is HLA-B*07:02. The description is as above. The conditions noted are these: source organism: Influenza A virus (A/tiger/Thailand/CU-T4/04(H5N1)).
The target of another assay is HLA-B*27:05. The description is as above.
In the next assay the target is HLA-B*58:01. The description is as above. As to conditions: source organism: Influenza A virus (A/tiger/Thailand/CU-T4/04(H5N1)).
Assay [14] concerns the target HLA-B*15:01. Described as above. As to conditions: source organism: Influenza A virus (A/Puerto Rico/8/34/Mount Sinai(H1N1)).
A further assay has as its target HLA-A*01:01. Described as above. The conditions noted are these: source organism: Influenza A virus (A/tiger/Thailand/CU-T4/04(H5N1)).
Assay [15] deals with HLA-B*35:01. Described as above. As to conditions: source organism: Vibrio parahaemolyticus RIMD 2210633.
Setting [16] is: source organism: Mycobacterium avium.
[17] abbreviates: source organism: Zaire ebolavirus.
[18] abbreviates: source organism: Influenza A virus (A/duck/Hong Kong/3096/99(H6N2)).
The mark [19] stands for this setting: source organism: Influenza A virus (A/tiger/Thailand/CU-T4/04(H5N1)).
Setting [20] is: source organism: Influenza A virus(A/swine/Shandong/fZC/2003(H9N2)).
Setting [21] is: source organism: Vaccinia virus WR.

Kd and IC50 data for six sequences are collected here from the Immune Epitope Database (IEDB).

LAANFVVAL: the figures for the Kd with HLA-C*12:03 (setting [16]) and with HLA-C*03:03 (setting [16]) were 206 nM and 124 nM, respectively.
As to FLILPQAKK, the Kd with HLA-A*69:01 (setting [17]), in the assay with HLA-B*46:01 (setting [17]), with HLA-B*51:01 (setting [17]), in the assay with HLA-B*39:01 (setting [17]), in the assay with HLA-A*26:01 [1] (setting [17]) and with HLA-A*02:01 [2] (setting [17]) was not below 20 µM each time. In addition, the Kd in the assay with HLA-B*15:17 (setting [17]), with HLA-B*57:01 (setting [17]), with HLA-B*15:01 [3] (setting [17]), with HLA-B*18:01 (setting [17]), with HLA-B*27:03 and with HLA-A*03:01 [7] (setting [17]) was not below 20 µM throughout. Moreover, the Kd with HLA-A*24:03 (setting [17]), in the assay with HLA-A*02:19 (setting [17]), with HLA-A*02:03 (setting [17]), with HLA-A*02:12 (setting [17]), with HLA-A*02:16 (setting [17]) and in the assay with HLA-A*23:01 (setting [17]) was not below 20 µM each time. In addition, the Kd in the assay with HLA-A*68:02 [8] (setting [17]), with HLA-A*29:02 (setting [17]) and in the assay with HLA-A*02:11 (setting [17]) was not below 20 µM throughout. In addition, the results for the IC50 with HLA-A*11:01 [4], with HLA-A*03:01 [5] and in the assay with HLA-A*02:01 [6] were 1670 nM, 4.4 µM and 64.7 µM, respectively.
Turning to TMLYNKMEF, the Kd with HLA-B*35:01 [9] is 1260 nM; with HLA-B*46:01 (setting [18]), not below 20 µM; with HLA-B*39:01 (setting [18]) it was not below 20 µM; in the assay with HLA-B*08:01, 3000 nM; in the assay with HLA-B*15:17 (setting [18]), 0.311 µM; in the assay with HLA-A*02:06, 312 nM. The Kd was not below 20 µM with HLA-B*57:01 (setting [18]); 4.44 µM with HLA-A*68:02 [10]; not below 20 µM with HLA-A*26:02; not below 20 µM in the assay with HLA-A*11:01 [11]; not below 20 µM with HLA-A*03:01 [7] (setting [19]); 0.0114 µM with HLA-A*24:03 (setting [19]). The Kd with HLA-A*26:01 [12] is not below 20 µM; in the assay with HLA-A*31:01, not below 20 µM; with HLA-A*02:19 (setting [20]), not below 5 µM; in the assay with HLA-A*02:01 [13], 604 nM; with HLA-A*02:03 (setting [20]), not below 20 µM; with HLA-B*07:02 it was not below 20 µM. Also, the Kd with HLA-A*02:12 (setting [20]) is 3.47 µM; in the assay with HLA-B*27:05 (setting [19]) it was not below 20000 nM; with HLA-A*23:01 (setting [19]), 0.047 µM; in the assay with HLA-B*58:01, not below 20 µM; with HLA-B*15:01 [14] it was 118 nM; with HLA-A*01:01, not below 20 µM. In the assay with HLA-A*02:11 (setting [20]), this sequence came in with a Kd of 0.157 µM.
For the sequence FLRDNLYHV, the values for the Kd in the assay with HLA-A*02:01 [2] (setting [21]), with HLA-C*12:03 (setting [21]) and with HLA-C*03:03 (setting [21]) were 0.0016 µM, 29 nM and not below 20000 nM, respectively.
On to FAAWIQQTY, for which the values for the Kd with HLA-B*46:01 (source organism: Vibrio parahaemolyticus AN-5034) and with HLA-B*35:01 [15] were 0.125 µM and 10 nM, respectively.
Take GRFQEALKK: the Kd in the assay with HLA-A*69:01 (source organism: Choclo virus), with HLA-B*46:01 (source organism: Choclo virus), with HLA-B*51:01 (source organism: Choclo virus), with HLA-B*39:01 (source organism: Choclo virus), in the assay with HLA-A*26:01 [1] (source organism: Choclo virus) and with HLA-A*02:01 [2] (source organism: Choclo virus) was not below 20 µM throughout. Moreover, the Kd with HLA-B*15:17 (source organism: Choclo virus), with HLA-B*57:01 (source organism: Choclo virus), with HLA-B*15:01 [3] (source organism: Choclo virus), with HLA-B*18:01 (source organism: Choclo virus), with HLA-A*03:01 [7] (source organism: Choclo virus) and in the assay with HLA-A*24:03 (source organism: Choclo virus) was not below 20 µM in each case. Also, the Kd with HLA-A*02:19 (source organism: Choclo virus) was not below 20 µM; with HLA-A*02:03 (source organism: Choclo virus) it was not below 20 µM; with HLA-A*02:12 (source organism: Choclo virus), not below 20 µM; with HLA-B*27:05 (source organism: Orthohantavirus andesense), 71.7 nM; with HLA-A*02:16 (source organism: Choclo virus), not below 20 µM; in the assay with HLA-A*23:01 (source organism: Choclo virus), not below 20 µM. For the same sequence, the Kd with HLA-A*68:02 [8] (source organism: Choclo virus), in the assay with HLA-A*29:02 (source organism: Choclo virus) and with HLA-A*02:11 (source organism: Choclo virus) was not below 20 µM each time.

As usually defined, the Kd is the concentration at which binding is half-saturated. Low values mean tighter binding, high ones weaker binding. Broadly, the IC50 is the concentration that inhibits the measured activity by half. Read a high IC50 as weaker potency.
